From US20110262386A1, “METHODS OF TREATING INFLAMMATION” (CAROLUS THERPEUTICS, INC., priority 2008, published 2011)
One block for each molecule: values may come before it.

Legend:
[1] = target: CXCR4-bearing Jurkat cells (Homo sapiens, UniProt P61073)
MonoMac6 cells = assay: Monocytic cell arrest under flow on CHO/ICAM-1 cells; assay type: cell-based; conditions: exposure 2 h, flow conditions
Procedure: (§1) Arrest of calcein-AM (Molecular Probes)-labeled monocytes, T cells and L1.2 transfectants was quantified in parallel-wall chambers in flow (1.5 dynes/cm^2, 5 min) (Schober, A., at al. (2004) Circulation 109, 380-385; Osterman, G., at al. (2002) Nat. Immunol. 3, 151-158; Weber, C., at al. (1996) J. Cell Biol. 134, 1063-1073).

[2] = tested on: primary human effector T cells; assay: T-cell arrest under flow on aortic endothelial cells; assay type: cell-based; conditions: immobilized on aortic endothelial cells
Procedure: as §1

[3] = tested on: human aortic (or venous) endothelial cells; assay: Real-time PCR and ELISA of arrest chemokines in endothelial cells; assay type: cell-based; conditions: 2-h-long preincubation
Procedure: RNA was reverse-transcribed using oligo-dT primers. RTPCR was performed using QuantiTect Kit with SYBRGreen (Qiagen), specific primers and an MJ Opticon2 (Biozym). CXCL8 was quantified by Quantikine ELISA (R&D).

[4] = tested on: primary human neutrophils; assay: Transwell chemotaxis of neutrophils; assay type: cell-based
Procedure: (§2) Pore sizes and intervals were 5 μm and 3 h (monocytes), 3 μm and 1.5 h (T cells), and […] and 1 h (neutrophils).

CCR5 = target: T1, CCR5 (Homo sapiens, UniProt P51681); assay: CCR5 internalization in L1.2 CCR5 transfectants; assay type: cell-based
T1 construct: host or cells: L1.2 pre-B lymphoma cells
Procedure: (§3) Internalization was calculated relative to surface expression of buffer-treated cells (100% control) and isotype control staining (0% control): geometric MFI[experimental]−MFI[0% control]/MFI[100% control]−MFI[0% control]×100.

CXCR2 [5] = target: T2, CXCR2 (Homo sapiens, UniProt P25025); assay: CXCR2 internalization assay, HEK293-CXCR2; assay type: cell-based; conditions: FACS of surface CXCR2, stable HEK293 transfectants
T2 construct: expressed in transfected cells
T2 sequence (P25025 1-360): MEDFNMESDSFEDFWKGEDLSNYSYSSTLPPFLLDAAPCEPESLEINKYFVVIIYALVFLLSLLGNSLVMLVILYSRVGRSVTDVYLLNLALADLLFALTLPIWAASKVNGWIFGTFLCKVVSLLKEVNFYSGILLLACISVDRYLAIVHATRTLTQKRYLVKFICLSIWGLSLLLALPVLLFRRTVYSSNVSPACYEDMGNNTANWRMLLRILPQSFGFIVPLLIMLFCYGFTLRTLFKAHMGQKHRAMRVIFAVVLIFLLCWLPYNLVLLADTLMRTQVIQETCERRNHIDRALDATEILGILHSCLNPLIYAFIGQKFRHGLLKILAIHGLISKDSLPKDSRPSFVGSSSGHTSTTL
Procedure: as §3

[6] = tested on: postcapillary venules of cremaster muscle; assay: Cremaster microcirculation model, intravital microscopy; assay type: in vivo, mouse; conditions: MIF injected adjacent to the muscle
Procedure: After 4 h, intravital microscopy (Zeiss Axioplan; 20×) was performed in postcapillary venules (Gregory, J. L., at al. (2004) Arthritis Rheum. 50, 3023-3034; Keane, M. P., at al. (2004) J. Immunol. 172, 2853-2860). Adhesion was measured as leukocytes stationary for more than 30 s, emigration as the number of extravascular leukocytes per field.

[7] = tested on: mice with wild-type bone marrow; assay: Model of acute peritonitis (MIF-induced); assay type: in vivo, mouse; conditions: after 4 h
Procedure: After 4 h, peritoneal lavage was performed and Gr-1^+CD115^−F4/80^− neutrophils were quantified by flow cytometry using the relevant conjugated antibodies.

[8] = tested on: primary human neutrophils; assay: Calcium mobilization in neutrophils (Fluo-4 AM); assay type: cell-based
αLβ2 (LFA-1) = assay: αLβ2 integrin activation assay (327C reporter antibody, flow cytometry); assay type: cell-based; conditions: MonoMac6 cells and human blood monocytes; persisted over 30 min
From the text: LFA-1 activation analyzed by flow cytometry is reported as the increase in mean fluorescent intensity (MFI) or relative to the positive control (Shamri, R., at al. (2005) Nat. Immunol. 6, 497-506).

primary human monocytes [9] = assay: Transwell chemotaxis of monocytes; assay type: cell-based
Procedure: as §2

primary human monocytes [10] = assay: Monocyte arrest under flow on human aortic endothelial cells; assay type: cell-based; conditions: endothelial cells pretreated 2 h, flow conditions
Procedure: as §1

CXCR2 [11] = assay: Calcium mobilization in L1.2 CXCR2 transfectants; assay type: cell-based
[12] = tested on: primary CD3+ T lymphocytes; assay: Transwell chemotaxis of T cells; assay type: cell-based, human; conditions: CD3+ T lymphocytes devoid of CXCR1 and CXCR2
Procedure: as §2

[13] = 12 weeks, compared with vehicle controls

Sequence of CXCR4-bearing Jurkat cells (P61073 whole entry): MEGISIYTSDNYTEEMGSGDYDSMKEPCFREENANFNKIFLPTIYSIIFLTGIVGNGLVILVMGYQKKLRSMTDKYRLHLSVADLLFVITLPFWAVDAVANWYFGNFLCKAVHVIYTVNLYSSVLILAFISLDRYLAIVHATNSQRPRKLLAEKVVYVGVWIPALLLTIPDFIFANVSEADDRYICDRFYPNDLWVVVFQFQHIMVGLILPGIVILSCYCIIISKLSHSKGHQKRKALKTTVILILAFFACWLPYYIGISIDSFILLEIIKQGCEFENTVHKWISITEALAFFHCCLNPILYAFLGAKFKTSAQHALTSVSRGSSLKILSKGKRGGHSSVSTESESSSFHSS
T1 sequence (P51681 whole entry): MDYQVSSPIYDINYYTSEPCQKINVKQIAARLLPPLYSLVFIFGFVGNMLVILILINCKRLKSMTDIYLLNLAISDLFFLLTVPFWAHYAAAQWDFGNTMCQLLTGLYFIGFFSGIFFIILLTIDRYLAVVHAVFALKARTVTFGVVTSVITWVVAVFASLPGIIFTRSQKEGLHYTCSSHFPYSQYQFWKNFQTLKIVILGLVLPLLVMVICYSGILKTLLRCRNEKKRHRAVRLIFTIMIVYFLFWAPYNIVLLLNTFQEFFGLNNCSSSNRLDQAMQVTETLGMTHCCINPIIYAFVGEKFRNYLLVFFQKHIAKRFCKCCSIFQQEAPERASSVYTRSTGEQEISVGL

Molecule: c1ccc(CNCc2ccc(CN3CCCNCCNCCCNCC3)cc2)nc1 [AMD3465]
- effect on specific binding of fluorescein-MIF to CXCR4-bearing Jurkat cells [1]: inhibited
- lesion formation in oil red O-stained aortic root sections (Apoe−/− mice; [13]): significantly exacerbates lesion formation
- lesion formation in thoracoabdominal aortas prepared en face (Apoe−/− mice; [13]): significantly exacerbates lesion formation
- relative number of circulating neutrophils (Apoe−/− mice; further increases during disease progression): expansion in the relative number of circulating neutrophils
- peripheral blood leukocytes (Apoe−/− mice; within 2 days, sustained throughout the study period): pronounced peripheral blood leukocytosis

Molecule: CXCL8: Chemokine from PeproTech; cognate CXCR2 ligand [reference compound]
- monocytic cell arrest on pretreated CHO/ICAM-1 transfectants (MonoMac6 cells): increased monocytic cell arrest

Molecule: CXCL12: Chemokine from PeproTech; known CXCR4 ligand and T-cell chemoattractant [reference compound]
- arrest of primary human effector T cells [2]: triggered the arrest

- CCR5 internalization (CCR5): unable to induce CCR5 internalization
- CXCR2 internalization (CXCR2 [5]): induced CXCR2 internalization
B1: MIF: Recombinant MIF, expressed and purified as described; pro-inflammatory cytokine, ligand for CXCR2, CXCR4 and CD74 (protein)
chain: PMFIVNTNVPRASVPDGFLSELTQQLAQATGKPPQYIAVHVVPDQLMAFGGSSEPCALCSLHSIGKIGGAQNRSYSKLLCGLLAERLRISPDRVYINYYDMNAANVGWNNSTFA
- upregulation of arrest chemokines known to engage CXCR2 (CXCL1, CXCL8) [3]: failed to upregulate
- chemotactic activity on neutrophils [4]: exerted CXCR2- but not CXCR1-mediated chemotactic activity
- leukocyte adhesion and emigration in postcapillary venules [6]: marked increase
- neutrophil recruitment after intraperitoneal injection [7]: elicited neutrophil recruitment
- calcium influx in neutrophils [8]: induced calcium influx
- earliest time of αLβ2 activation after exposure (αLβ2 (LFA-1)): 1 min
- MIF concentration that induced optimal chemotaxis (primary human monocytes [9]): 2 to 4 nM
- optimum concentration of bell-shaped dose-response curve of monocyte migration (primary human monocytes [9]; MIF in lower chamber): 25 to 50 ng/mL
- arrest of primary human monocytes on pretreated endothelial cells (primary human monocytes [10]): substantially increased
- arrest of primary human effector T cells [2]: triggered the arrest
- calcium influx in CXCR2 transfectants (CXCR2 [11]): dose-dependently induced calcium influx, and was slightly less potent and effective than CXCL8 or CXCL7
- monocytic cell arrest on pretreated CHO/ICAM-1 transfectants (MonoMac6 cells): increased monocytic cell arrest
- induction of T-cell transmigration [12]: dose-dependently induced transmigration
